Data from patent US20250320304A1 (Janssen / Centocor, published 2025).

T1: BCMA (BCMW37.DB.001) (UniProt Q02223 1-54, limits assumed)
T1 construct: The SPR antigen itself is named only by its batch label
T1 sequence (looked up): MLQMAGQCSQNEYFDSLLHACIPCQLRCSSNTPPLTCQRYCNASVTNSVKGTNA

T2: BCMA on H929-Fluc-GFP cells (UniProt Q02223 1-184)
T2 sequence (looked up): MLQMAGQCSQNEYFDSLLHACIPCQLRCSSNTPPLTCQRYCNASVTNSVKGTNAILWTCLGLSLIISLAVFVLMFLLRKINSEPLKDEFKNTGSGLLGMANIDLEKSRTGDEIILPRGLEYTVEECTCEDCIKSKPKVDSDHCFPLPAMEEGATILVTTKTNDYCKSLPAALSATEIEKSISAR

B1: BCMB1052 (bispecific antibody, human IgG1, kappa, L234A L235A)
light: DIVMTQSQKFMSTTVGDRVSITCKASQNVGTAVAWYQQKPGQSPKLLIYSASNRYTGVPDRFTGTGSGTDFTLTIINVQSEDLADYFCQQYGSSPWTFGGGTKLEIKRTVAAPSVFIFPPSDEQLKSGTASVVCLLNNFYPREAKVQWKVDNALQSGNSQESVTEQDSKDSTYSLSSTLTLSKADYEKHKVYACEVTHQGLSSPVTKSFNRGEC
heavy: QVQLQQSGAELVKPGASVKLSCKASGYTFTNNVMHWVRQKPGQGLEWIGYILPYNDGTKYNEKFKGKATLTSDKSSSTAYMELSSLTSEDSAVYYCARYDYDGYFDYWGQGTTLTVSSASTKGPSVFPLAPSSKSTSGGTAALGCLVKDYFPEPVTVSWNSGALTSGVHTFPAVLQSSGLYSLSSVVTVPSSSLGTQTYICNVNHKPSNTKVDKKVEPKSCDKTHTCPPCPAPEAAGGPSVFLFPPKPKDTLMISRTPEVTCVVVSVSHEDPEVKFNWYVDGVEVHNAKTKPREEQYNSTYRVVSVLTVLHQDWLNGKEYKCKVSNKALPAPIEKTISKAKGQPREPQVYTLPPSREEMTKNQVSLSCAVKGFYPSDIAVEWESNGQPENNYKTTPPVLDSDGSFFLVSKLTVDKSRWQQGNVFSCSVMHEALHNRFTQKSLSLSPGK
chain: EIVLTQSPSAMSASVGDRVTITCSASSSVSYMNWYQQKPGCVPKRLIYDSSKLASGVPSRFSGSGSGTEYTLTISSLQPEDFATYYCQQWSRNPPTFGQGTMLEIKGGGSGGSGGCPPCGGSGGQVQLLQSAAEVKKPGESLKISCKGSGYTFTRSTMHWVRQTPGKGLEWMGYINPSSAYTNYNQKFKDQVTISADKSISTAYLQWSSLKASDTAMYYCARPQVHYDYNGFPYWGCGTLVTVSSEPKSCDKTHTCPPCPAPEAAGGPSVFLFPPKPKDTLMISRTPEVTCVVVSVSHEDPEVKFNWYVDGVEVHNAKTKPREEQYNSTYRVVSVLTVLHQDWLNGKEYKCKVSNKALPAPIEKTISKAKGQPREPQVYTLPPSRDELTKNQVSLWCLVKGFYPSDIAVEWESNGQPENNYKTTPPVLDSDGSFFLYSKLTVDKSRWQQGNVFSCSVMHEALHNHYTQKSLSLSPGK
notes: Murine anti-BCMA Fab × stapled anti-CD3 scFv-Fc, knob-in-hole Fc; also called BCMB1052.001; BCMB749 × Cris7b spFv
B2: BCMB1055 (bispecific antibody, human IgG1, kappa, L234A L235A)
light: DIQMTQSPSSVSASVGDRVTITCKASQNVGTAVAWYQQKPGQSPKLLIYSASNRYTGVPSRFSGSGSGTDFTLTISSLQPEDFATYFCQQYGSSPWTFGGGTKVEIKRTVAAPSVFIFPPSDEQLKSGTASVVCLLNNFYPREAKVQWKVDNALQSGNSQESVTEQDSKDSTYSLSSTLTLSKADYEKHKVYACEVTHQGLSSPVTKSFNRGEC
heavy: QVQLVQSGAEVKKPGASVKVSCKASGYTFTNNVMHWVRQAPGQGLEWMGYILPYNDGTKYNQKFQGRVTLTSDKSASTAYMELSSLRSEDTAVYYCARYDYDGYFDYWGQGTTVTVSSASTKGPSVFPLAPSSKSTSGGTAALGCLVKDYFPEPVTVSWNSGALTSGVHTFPAVLQSSGLYSLSSVVTVPSSSLGTQTYICNVNHKPSNTKVDKKVEPKSCDKTHTCPPCPAPEAAGGPSVFLFPPKPKDTLMISRTPEVTCVVVSVSHEDPEVKFNWYVDGVEVHNAKTKPREEQYNSTYRVVSVLTVLHQDWLNGKEYKCKVSNKALPAPIEKTISKAKGQPREPQVYTLPPSREEMTKNQVSLSCAVKGFYPSDIAVEWESNGQPENNYKTTPPVLDSDGSFFLVSKLTVDKSRWQQGNVFSCSVMHEALHNRFTQKSLSLSPGK
chain: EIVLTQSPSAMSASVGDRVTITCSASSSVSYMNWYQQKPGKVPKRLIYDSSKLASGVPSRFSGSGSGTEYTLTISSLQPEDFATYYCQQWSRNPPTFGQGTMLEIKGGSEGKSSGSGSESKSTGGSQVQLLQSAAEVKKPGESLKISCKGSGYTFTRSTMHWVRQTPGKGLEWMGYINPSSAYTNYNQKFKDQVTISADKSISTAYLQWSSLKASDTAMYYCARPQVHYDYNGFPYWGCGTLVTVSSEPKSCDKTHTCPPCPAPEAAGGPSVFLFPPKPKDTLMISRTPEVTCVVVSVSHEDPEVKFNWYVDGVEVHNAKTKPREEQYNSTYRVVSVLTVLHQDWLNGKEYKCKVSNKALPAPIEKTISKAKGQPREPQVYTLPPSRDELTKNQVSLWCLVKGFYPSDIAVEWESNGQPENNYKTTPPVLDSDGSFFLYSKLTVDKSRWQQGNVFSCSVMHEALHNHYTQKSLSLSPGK
notes: Humanized anti-BCMA Fab × anti-CD3 scFv-Fc, knob-in-hole Fc; also called BCMB1055.001; BCMB749h × Cris7b scFv
B3: BCMB1050 (bispecific antibody, human IgG1, kappa, L234A L235A)
light: B2 light
heavy: B2 heavy
chain: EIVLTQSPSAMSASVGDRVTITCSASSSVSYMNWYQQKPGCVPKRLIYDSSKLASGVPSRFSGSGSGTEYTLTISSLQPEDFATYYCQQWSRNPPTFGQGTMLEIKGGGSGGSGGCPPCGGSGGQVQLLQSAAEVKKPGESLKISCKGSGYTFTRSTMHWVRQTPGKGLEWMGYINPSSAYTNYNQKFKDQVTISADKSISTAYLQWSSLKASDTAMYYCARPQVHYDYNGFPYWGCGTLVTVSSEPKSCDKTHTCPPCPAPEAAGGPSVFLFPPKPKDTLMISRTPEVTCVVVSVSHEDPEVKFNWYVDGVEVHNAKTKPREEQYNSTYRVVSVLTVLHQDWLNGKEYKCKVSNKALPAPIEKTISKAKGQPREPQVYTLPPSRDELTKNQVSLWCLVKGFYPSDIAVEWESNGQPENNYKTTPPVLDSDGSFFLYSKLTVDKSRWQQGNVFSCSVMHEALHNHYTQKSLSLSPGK
notes: Humanized anti-BCMA Fab × stapled anti-CD3 scFv-Fc, knob-in-hole Fc; also called BCMB1050.001; BCMB749h × Cris7b spFv
B4: BCMB1049 (bispecific antibody, human IgG1, kappa, L234A L235A)
light: B2 light
heavy: B2 heavy
chain: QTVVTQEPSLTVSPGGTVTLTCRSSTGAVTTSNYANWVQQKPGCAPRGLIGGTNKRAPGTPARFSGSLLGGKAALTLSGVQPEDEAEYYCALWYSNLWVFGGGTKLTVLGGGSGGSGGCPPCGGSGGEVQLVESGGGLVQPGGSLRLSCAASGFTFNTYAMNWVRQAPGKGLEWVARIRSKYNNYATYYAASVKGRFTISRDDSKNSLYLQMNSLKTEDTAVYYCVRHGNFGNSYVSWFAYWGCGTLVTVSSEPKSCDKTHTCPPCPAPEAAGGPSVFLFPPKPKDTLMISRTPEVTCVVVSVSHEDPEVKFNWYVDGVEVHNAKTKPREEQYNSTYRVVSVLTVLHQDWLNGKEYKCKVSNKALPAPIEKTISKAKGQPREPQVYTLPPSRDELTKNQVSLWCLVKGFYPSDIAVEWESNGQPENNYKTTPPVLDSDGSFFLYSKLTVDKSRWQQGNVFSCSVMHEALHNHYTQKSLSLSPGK
notes: Humanized anti-BCMA Fab × stapled anti-CD3 (CD3B219) scFv-Fc, knob-in-hole Fc; also called BCMB1049.001; BCMB749h × CD3B219 spFv

biological target: T1, BCMA (BCMW37.DB.001); experiment: SPR, BCMA antigen BCMW37.DB.001

With B1 as the binder, how does the Kd read?
Its Kd is 2.74 nM.

And the koff?
The koff was 0.039 s⁻¹.

And the kon?
Its kon is 1.42e+07 M⁻¹ s⁻¹.

What does the source list for B2?
Kd: 1.77 nM; koff: 0.0223 s⁻¹; kon: 1.26e+07 M⁻¹ s⁻¹

With B3 as the binder, how does the Kd read?
The Kd was 1.75 nM.

What about the koff of the same binder?
The koff was 0.021 s⁻¹.

What about the kon of the same binder?
Its kon is 1.2e+07 M⁻¹ s⁻¹.

With B4 as the binder, how does the Kd read?
The Kd was 1.59 nM.

What about the koff of the same binder?
Its koff is 0.0219 s⁻¹.

What about the kon of the same binder?
The kon was 1.38e+07 M⁻¹ s⁻¹.

biological target: CD3 on human donor Pan T cells (human); experiment: cell-based or functional assay
Sequence (chain, as listed by the source): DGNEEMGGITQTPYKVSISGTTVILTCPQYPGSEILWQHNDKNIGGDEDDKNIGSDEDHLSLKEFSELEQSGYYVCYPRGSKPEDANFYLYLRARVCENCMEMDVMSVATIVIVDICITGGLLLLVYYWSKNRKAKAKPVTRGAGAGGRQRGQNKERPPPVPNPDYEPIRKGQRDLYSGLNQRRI

Which “Bottom of fit, CD4/CD25+ T cell activation” value does the source give for B1 here?
Its value is 8.12.

And the “Bottom of fit, CD8/CD25+ T cell activation” value?
The value was 0.941.

And the “EC50 (nM), CD4/CD25+ T cell activation” value?
The value was 0.0627 nM.

And the “EC50 (nM), CD8/CD25+ T cell activation” value?
The value was 0.117 nM.

And the “Top of fit (Cmax), CD4/CD25+ T cell activation” value?
The value was 80.9.

And the “Top of fit (Cmax), CD8/CD25+ T cell activation” value?
Its value is 73.5.

How did the “Bottom of fit, CD4/CD25+ T cell activation” value turn out when B2 was run?
Its value is 7.46.

What about the “Bottom of fit, CD8/CD25+ T cell activation” value of the same binder?
The value was 0.97.

What about the “EC50 (nM), CD4/CD25+ T cell activation” value of the same binder?
The value was 0.0447 nM.

And the “EC50 (nM), CD8/CD25+ T cell activation” value?
Its value is 0.0859 nM.

And the “Top of fit (Cmax), CD4/CD25+ T cell activation” value?
The value was 87.4.

And the “Top of fit (Cmax), CD8/CD25+ T cell activation” value?
Its value is 81.2.

B3 was tested. Which “Bottom of fit, CD4/CD25+ T cell activation” value did it give?
Its value is 8.05.

What about the “Bottom of fit, CD8/CD25+ T cell activation” value of the same binder?
The value was 1.32.

And the “EC50 (nM), CD4/CD25+ T cell activation” value?
Its value is 0.0222 nM.

What about the “EC50 (nM), CD8/CD25+ T cell activation” value of the same binder?
The value was 0.0343 nM.

And the “Top of fit (Cmax), CD4/CD25+ T cell activation” value?
Its value is 86.4.

And the “Top of fit (Cmax), CD8/CD25+ T cell activation” value?
Its value is 80.1.

Which results are given for B4?
Bottom of fit, CD4/CD25+ T cell activation: 8.58; Bottom of fit, CD8/CD25+ T cell activation: 1.65; EC50 (nM), CD4/CD25+ T cell activation: 0.0409 nM; EC50 (nM), CD8/CD25+ T cell activation: 0.0744 nM; Top of fit (Cmax), CD4/CD25+ T cell activation: 86.8; Top of fit (Cmax), CD8/CD25+ T cell activation: 77

biological target: T2, BCMA on H929-Fluc-GFP cells; experiment: cell-based or functional assay

For B1, which “Bottom of fit, % Cytolysis” value is on record?
Its value is 15.4%.

What about the “EC50 (nM), % Cytolysis” value of the same binder?
Its value is 0.0489 nM.

What about the “Top of fit (Cmax), % Cytolysis” value of the same binder?
The value was 93.4%.

B2 was tested. Which “Bottom of fit, % Cytolysis” value did it give?
Its value is 16.1%.

And the “EC50 (nM), % Cytolysis” value?
Its value is 0.0301 nM.

What about the “Top of fit (Cmax), % Cytolysis” value of the same binder?
Its value is 93.2%.

For B3, which “Bottom of fit, % Cytolysis” value is on record?
Its value is 17%.

And the “EC50 (nM), % Cytolysis” value?
Its value is 0.0141 nM.

And the “Top of fit (Cmax), % Cytolysis” value?
The value was 94.6%.

For B4, which “Bottom of fit, % Cytolysis” value is on record?
The value was 16.5%.

What about the “EC50 (nM), % Cytolysis” value of the same binder?
Its value is ~0.0348 nM.

What about the “Top of fit (Cmax), % Cytolysis” value of the same binder?
Its value is 92.7%.

biological target: CD3W220.001; experiment: SPR, CD3 antigen CD3W220.001

B1 was tested. Which Kd did it give?
The Kd was 502 nM.

What about the koff of the same binder?
The koff was 0.105 s⁻¹.

What about the kon of the same binder?
The kon was 210000 M⁻¹ s⁻¹.

For B2, which Kd is on record?
The Kd was 746 nM.

And the koff?
The koff was 0.199 s⁻¹.

And the kon?
The kon was 267000 M⁻¹ s⁻¹.

Which Kd does the source give for B3 here?
Its Kd is 657 nM.

And the koff?
Its koff is 0.121 s⁻¹.

What about the kon of the same binder?
Its kon is 184000 M⁻¹ s⁻¹.

How did the Kd turn out when B4 was run?
Its Kd is 23.6 nM.

And the koff?
The koff was 0.00205 s⁻¹.

And the kon?
The kon was 86900 M⁻¹ s⁻¹.
